From patent publication US8173771B2, “Humanin receptor or humanin-like polypeptide receptor” (Keio Univeristy, priority 2005, dated 2012)
Peptide text beside a SMILES is read from it.

Assays:
IL-6 receptor = target: T1, IL-6 receptor (Rattus norvegicus, UniProt P22273); experiment: In vitro pull-down assay with HN- or HNA-conjugated Sepharose 4B; type: binding; conditions: lysates of F11 cells overexpressing IL-6R
T1 construct: V6 (so in the source); probably V5); host or cells: F11 cells (lysate)
T1 sequence (P22273 20-462): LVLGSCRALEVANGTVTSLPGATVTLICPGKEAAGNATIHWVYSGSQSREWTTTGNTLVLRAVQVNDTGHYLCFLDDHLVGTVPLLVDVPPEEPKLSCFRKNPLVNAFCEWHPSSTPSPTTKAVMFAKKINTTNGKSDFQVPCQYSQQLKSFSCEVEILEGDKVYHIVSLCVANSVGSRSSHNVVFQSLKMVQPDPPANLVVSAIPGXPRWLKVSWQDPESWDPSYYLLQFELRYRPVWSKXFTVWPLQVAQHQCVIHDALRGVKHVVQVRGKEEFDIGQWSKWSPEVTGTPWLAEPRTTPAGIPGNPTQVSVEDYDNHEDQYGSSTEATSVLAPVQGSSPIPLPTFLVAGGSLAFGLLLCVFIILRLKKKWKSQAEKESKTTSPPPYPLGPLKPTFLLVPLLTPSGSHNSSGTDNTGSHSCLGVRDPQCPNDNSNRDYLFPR
From the text: (§1) C) The photos show the results of in vitro pull down assay using HN- or HNA-conjugated Sepharose 4B bead. WSX-1, CNTF-R, and […] were over-expressed in F11 cells and the pull down assay was made using the above 4B bead. Immunoblot analysis was done using PO4 antibody against Humanin (lower panes). HN or HNA comprised in the above Sepharose 4B bead was compared with synthesized HN peptide (50 pmol) as a positive control.
(§2) F11 cells (7×10^4/well in 6-well plates) were transfected with the plasmids encoding mycHis-WSX-1, V5-CNTF-R or rat IL-6R (V6 tagged). At 48 hrs after transfection, the cells were harvested for pull-down assays with HN or HNA-conjugated Sepharose 4B. For conjugation of […] or HNA with Sepharose 4B, 3 ml of CNBr-activated Sepharose 4B was incubated with 0.5 mg of HN or HNA in a coupling buffer (0.1M NaHCO3 0.5M NaCl, pH8.3) overnight at 4° C. The beads were then reacted with a blocking buffer (0.2M glycine, pH 8.0) for 2 hrs at a room temperature, washed with the coupling buffer and stored at 4° C. for use in pull-down assay. For each pull-down assay, 20 μl of 1:1 slurry of Sepharose was used for 100 μl of the cell lysate.

CNTF receptor = target: T2, CNTF receptor (Homo sapiens, UniProt P26992); experiment: as above; type: binding; conditions: lysates of F11 cells overexpressing CNTF-R
T2 construct: V5 (C); host or cells: F11 cells (lysate)
T2 sequence (P26992 23-342): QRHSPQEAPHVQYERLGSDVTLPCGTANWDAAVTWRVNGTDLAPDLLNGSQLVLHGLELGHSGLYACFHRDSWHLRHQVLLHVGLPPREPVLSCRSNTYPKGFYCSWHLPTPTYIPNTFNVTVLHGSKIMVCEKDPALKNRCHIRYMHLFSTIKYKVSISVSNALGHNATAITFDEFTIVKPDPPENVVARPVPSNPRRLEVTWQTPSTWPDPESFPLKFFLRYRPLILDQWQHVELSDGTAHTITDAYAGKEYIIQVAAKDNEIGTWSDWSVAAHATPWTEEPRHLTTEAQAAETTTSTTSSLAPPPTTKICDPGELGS
From the text: as §1, §2

WSX-1 = target: T3, WSX-1 (Homo sapiens, UniProt Q6UWB1); experiment: as above; type: binding; conditions: lysates of F11 cells overexpressing WSX-1
T3 construct: His; expressed in transfected cells; host or cells: F11 cells (lysate)
T3 sequence (Q6UWB1 33-636): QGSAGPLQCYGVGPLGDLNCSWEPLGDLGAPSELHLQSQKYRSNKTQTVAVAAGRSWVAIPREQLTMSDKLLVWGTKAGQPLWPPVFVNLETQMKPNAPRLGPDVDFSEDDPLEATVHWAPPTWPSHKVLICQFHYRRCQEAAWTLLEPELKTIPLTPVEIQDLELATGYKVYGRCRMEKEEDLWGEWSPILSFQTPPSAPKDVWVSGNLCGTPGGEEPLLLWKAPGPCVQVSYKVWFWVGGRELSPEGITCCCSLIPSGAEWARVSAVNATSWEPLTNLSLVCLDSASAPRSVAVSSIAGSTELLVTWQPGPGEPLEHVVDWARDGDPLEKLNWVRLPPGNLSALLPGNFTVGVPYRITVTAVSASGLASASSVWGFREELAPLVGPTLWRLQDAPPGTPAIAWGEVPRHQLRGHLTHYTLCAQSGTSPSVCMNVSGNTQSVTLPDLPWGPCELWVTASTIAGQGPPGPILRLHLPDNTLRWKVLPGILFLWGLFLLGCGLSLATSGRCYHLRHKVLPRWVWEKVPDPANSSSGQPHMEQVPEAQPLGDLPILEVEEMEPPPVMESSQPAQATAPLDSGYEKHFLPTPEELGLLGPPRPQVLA
From the text: as §1, §2

STAT3 = experiment: Immunoblot of phosphotyrosine 705 of STAT3 in F11 cells; type: cell-based
Experimental: E) F11 cells were transfected with an indicated amount of pRNA-U6.1/Shuttle vector (empty), pRNA-U6.1/Shuttle-IL-6R siRNA, or pRNA-U6.1/Shuttle-LIFR siRNA. At 48 hrs after transfection, the cells were treated with 100 ng/ml IL-6, 100 ng/ml CNTF or 1 μM HNG at 37° for 15 min, and harvested. The results of immunoblot analysis using anti-phophoSTAT3 ([…]) antibody and anti-STAT3 antibody were shown in photos. A) F11 cells were added with an indicated amount of HN, HNG or HNA and harvested 15 min later for immunoblot analysis with antibodies recognizing phosphotyrosine 705 of STAT3 or STAT3. The results are shown in photos. B) F11 cells were transfected with 0.5 μg of pRNA-U1.6/Shuttle vector, pRNA-U6.1/Shuttle-WSX-1 siRNA, pRNA-U6.1/Shuttle-CNTF-R siRNA, both pRNA-U6.1/Shuttle-WSX-1 siRNA and pRNA-U6.1/Shuttle-CNTF-R siRNA (0.5 μg each), or pRNA-U6.1/Shuttle-FPR2 siRNA. The total amount of vectors was adjusted to be 1.0 μg by including a backbone vector. […] The results are shown in photos. Cell lysates (10-20 μg/lane) or pulled-down precipitates were subject to SDS-PAGE, and the proteins separated on the gel were transferred onto polyvinylidene difluoride membranes as described (Hashimoto et al, 2000). Visualization of the immunoreactive protein bands was performed by ECL (Amersham Pharmacia Biotech, Uppsala, Sweden).

binding in pull-down to IL-6 receptor (IL-6 receptor) | binding in pull-down to CNTF receptor (CNTF receptor) | binding in pull-down to WSX-1 (WSX-1) | Compound | phosphorylation of tyrosine 705 of STAT3 (STAT3; F11 cells, 15 min) | phosphorylation of tyrosine 705 of STAT3 (STAT3; decrease of expression of endogenous CNTF-R or WSX-1 by siRNA)
did not bind | did not bind | did not bind | C8A-Humanin (MAPRGFSALLLLTSEIDLPVKRRA) [HNA] |  | 
 |  |  | CC[C@H](C)[C@H](NC(=O)[C@H](CCC(=O)O)NC(=O)CNC(=O)[C@@H](NC(=O)[C@H](CC(C)C)NC(=O)[C@H](CC(C)C)NC(=O)[C@H](CC(C)C)NC(=O)[C@H](CC(C)C)NC(=O)[C@H](CS)NC(=O)[C@H](CO)NC(=O)[C@H](Cc1ccccc1)NC(=O)CNC(=O)[C@H](CCCNC(=N)N)NC(=O)[C@@H]1CCCN1C(=O)[C@H](C)NC(=O)[C@@H](N)CCSC)[C@@H](C)O)C(=O)N[C@@H](CC(=O)O)C(=O)N[C@@H](CC(C)C)C(=O)N1CCC[C@H]1C(=O)N[C@H](C(=O)N[C@@H](CCCCN)C(=O)N[C@@H](CCCNC(=N)N)C(=O)N[C@@H](CCCNC(=N)N)C(=O)N[C@@H](C)C(=O)O)C(C)C [HNG, S14 G-Humanin] (H-MAPRGFSCLLLLTGEIDLPVKRRA-OH; N-terminus and C-terminus assumed) | increased | almost completely inhibited
